Measured values as given in paper PMC8154130 (ACS Omega, 2021).

Biological target: the molecule itself
Test: native gel or EMSA

B1: C-terminal truncated DDX3X (domain or fragment, human, UniProt O00571 1-582, looked up)
chain: MSHVAVENALGLDQQFAGLDLNSSDNQSGGSTASKGRYIPPHLRNREATKGFYDKDSSGWSSSKDKDAYSSFGSRSDSRGKSSFFSDRGSGSRGRFDDRGRSDYDGIGSRGDRSGFGKFERGGNSRWCDKSDEDDWSKPLPPSERLEQELFSGGNTGINFEKYDDIPVEATGNNCPPHIESFSDVEMGEIIMGNIELTRYTRPTPVQKHAIPIIKEKRDLMACAQTGSGKTAAFLLPILSQIYSDGPGEALRAMKENGRYGRRKQYPISLVLAPTRELAVQIYEEARKFSYRSRVRPCVVYGGADIGQQIRDLERGCHLLVATPGRLVDMMERGKIGLDFCKYLVLDEADRMLDMGFEPQIRRIVEQDTMPPKGVRHTMMFSATFPKEIQMLARDFLDEYIFLAVGRVGSTSENITQKVVWVEESDKRSFLLDLLNATGKDSLTLVFVETKKGADSLEDFLYHEGYACTSIHGDRSQRDREEALHQFRSGKSPILVATAVAARGLDISNVKHVINFDLPSDIEEYVHRIGRTGRVGNLGLATSFFNERNINITKDLLDLLVEAKQEVPSWLENMAYEHHYKG
Does B1 bind?
Result: binds
